Earlier results, collected in US20020094542A1, “Drugs and methods for treating cancer” (priority 1989, published 2002).

Details: patients with kidney transplants

Which side-effects of treatment does the source give for “OKT3: monoclonal heterologous AB used clinically in patients with kidney transplants” here?
Its side-effects of treatment is “low (flu-like)”.
